Measured values: the RNAGym collection of RNA variant scans (doi:10.7554/elife.80360)

B1: CPEB3 Ribozyme (parent)
chain: GGGGGCCACAGCAGAAGCGUUCACGUCGCGGCCCCUGUCAGAUUCUGGUGAAUCUGCGAAUUCUGCUGU

Variants of: B1
Experiment: self-cleavage, relative activity (ratio to wild type); higher = more cleavage; co-transcriptional

| Variant | self-cleavage |
| --- | --- |
| GGGGGCCACAGCAGAAGCGUUCACGUCGCGGCCCCUGUCAGAUUCUGGUGAAUUUGCGAAUUCGGCUGU | 0.924 |
| GGGGGCCACAGCAGAAGCGUUCACGUCGCGGCCCCUGUCAGAUUCUGGUGAAUAUGCGGAUUCUGCUGU | 0.858 |
| GGGGGCCACAGCAGAAGCGUUCACGUCGCGGCCCCUGUCAGAUUCUGGUGAAUAUGCGCAUUCUGCUGU | 0.365 |
| GGGGGCCACAGCAGAAGCGUUCACGUCGCGGCCCCUGUCAGAUUCUGGUGAAUAUGCGUAUUCUGCUGU | 0.497 |
| GGGGGCCACAGCAGAAGCGUUCACGUCGCGGCCCCUGUCAGAUUCUGGUGAAUGUUCGAAUUCUGCUGU | 0.46 |
| GGGGGCCACAGCAGAAGCGUUCACGUCGCGGCCCCUGUCAGAUUCUGGUGAAGCUGGGAAUUCUGCUGU | 0.403 |
| GGGGGCCACAGCAGAAGCGUUCACGUCGCGGCCCCUGUCAGAUUCUGGUGAACCUGCGAAUUCUUCUGU | 0.429 |
| GGGGGCCACAGCAGAAGCGUUCACGUCGCGGCCCCUGUCAGAUUCUGGUGAAGCUGCGAAUUAUGCUGU | 0.494 |
| GGGGGCCACAGCAGAAGCGUUCACGUCGCGGCCCCUGUCAGAUUCUGGUGAAGCUGCGAAUUGUGCUGU | 0.523 |
| GGGGGCCACAGCAGAAGCGUUCACGUCGCGGCCCCUGUCAGAUUCUGGUGAAGCUGCGAAUUUUGCUGU | 0.849 |
| GGGGGCCACAGCAGAAGCGUUCACGUCGCGGCCCCUGUCAGAUUCUGGUGAAGCUGCGAAUUCUGCUCU | 0.882 |
| GGGGGCCACAGCAGAAGCGUUCACGUCGCGGCCCCUGUCAGAUUCUGGUGAAGCUGCGAAUUCUGCUUU | 0.986 |
| GGGGGCCACAGCAGAAGCGUUCACGUCGCGGCCCCUGUCAGAUUCUGGUGAAUAUGCGAAUUCUGCUGG | 1.01 |
| GGGGGCCACAGCAGAAGCGUUCACGUCGCGGCCCCUGUCAGAUUCUGGUGAAUGUGCGAAUUCUGCUGC | 1.04 |
| GGGGGCCACAGCAGAAGCGUUCACGUCGCGGCCCCUGUCAGAUUCUGGUGAAGCUGCGAAUUCAGCUGU | 0.604 |
| GGGGGCCACAGCAGAAGCGUUCACGUCGCGGCCCCUGUCAGAUUCUGGUGAAUUUGCGAAUUCUUCUGU | 0.809 |
| GGGGGCCACAGCAGAAGCGUUCACGUCGCGGCCCCUGUCAGAUUCUGGUGAACCUGCGAAUUCUGCUGA | 0.977 |
| GGGGGCCACAGCAGAAGCGUUCACGUCGCGGCCCCUGUCAGAUUCUGGUGAAGCUGCGAAUGCUGCUGU | 0.558 |
| GGGGGCCACAGCAGAAGCGUUCACGUCGCGGCCCCUGUCAGAUUCUGGUGAAUAUGCAAAUUCUGCUGU | 0.883 |
| GGGGGCCACAGCAGAAGCGUUCACGUCGCGGCCCCUGUCAGAUUCUGGUGAAUUUGCGAACUCUGCUGU | 0.861 |

| Variant | self-cleavage |
| --- | --- |
| GGGGGCCACAGCAGAAGCGUUCACGUCGCGGCCCCUGUCAGAUUCUGGUGAAUUUGCGAAUUCUGCUGA | 1.04 |
| GGGGGCCACAGCAGAAGCGUUCACGUCGCGGCCCCUGUCAGAUUCUGGUGAAUGUGCGAAUUCUGAUGU | 0.514 |
| GGGGGCCACAGCAGAAGCGUUCACGUCGCGGCCCCUGUCAGAUUCUGGUGAAUGUGCGAAUUCUGGUGU | 0.533 |
| GGGGGCCACAGCAGAAGCGUUCACGUCGCGGCCCCUGUCAGAUUCUGGUGAAUGUGCGAAUUCAGCUGU | 0.63 |
| GGGGGCCACAGCAGAAGCGUUCACGUCGCGGCCCCUGUCAGAUUCUGGUGAAUGUGCGAAUUCCGCUGU | 0.542 |
| GGGGGCCACAGCAGAAGCGUUCACGUCGCGGCCCCUGUCAGAUUCUGGUGAAUAUGCGAAUUCUGGUGU | 0.466 |
| GGGGGCCACAGCAGAAGCGUUCACGUCGCGGCCCCUGUCAGAUUCUGGUGAAUUUGCUAAUUCUGCUGU | 1.02 |
| GGGGGCCACAGCAGAAGCGUUCACGUCGCGGCCCCUGUCAGAUUCUGGUGAAUUGGCGAAUUCUGCUGU | 0.806 |
| GGGGGCCACAGCAGAAGCGUUCACGUCGCGGCCCCUGUCAGAUUCUGGUGAAUUUGCGAGUUCUGCUGU | 0.903 |
| GGGGGCCACAGCAGAAGCGUUCACGUCGCGGCCCCUGUCAGAUUCUGGUGAAGCUGCGAAUUCUGGUGU | 0.647 |
| GGGGGCCACAGCAGAAGCGUUCACGUCGCGGCCCCUGUCAGAUUCUGGUGAAGCUGCGAAUUCUGUUGU | 0.929 |
| GGGGGCCACAGCAGAAGCGUUCACGUCGCGGCCCCUGUCAGAUUCUGGUGAAGCGGCGAAUUCUGCUGU | 0.386 |
| GGGGGCCACAGCAGAAGCGUUCACGUCGCGGCCCCUGUCAGAUUCUGGUGAAGCUGCGAAUUCUGCUGA | 0.982 |
| GGGGGCCACAGCAGAAGCGUUCACGUCGCGGCCCCUGUCAGAUUCUGGUGAAUGUGCGUAUUCUGCUGU | 0.47 |
| GGGGGCCACAGCAGAAGCGUUCACGUCGCGGCCCCUGUCAGAUUCUGGUGAAUAUGCGAAUUCUGCGGU | 0.887 |
| GGGGGCCACAGCAGAAGCGUUCACGUCGCGGCCCCUGUCAGAUUCUGGUGAAUAUGCGAAUUCUGCCGU | 0.887 |
| GGGGGCCACAGCAGAAGCGUUCACGUCGCGGCCCCUGUCAGAUUCUGGUGAAUGUGCGAAUUCUGCAGU | 0.938 |
| GGGGGCCACAGCAGAAGCGUUCACGUCGCGGCCCCUGUCAGAUUCUGGUGAACCUGCGAACUCUGCUGU | 0.342 |
| GGGGGCCACAGCAGAAGCGUUCACGUCGCGGCCCCUGUCAGAUUCUGGUGAACCUGCGAAAUCUGCUGU | 0.577 |
